Source: the supplement of paper PMC9170038

Test system: MS2 coat protein
Assay: apparent KD of MS2 coat protein; designed switch direction (-1 OFF switch, 1 ON switch): -1; higher = weaker reporter binding
Method in brief: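 The buffer was Tris-HCl pH 7.5 with KCl, MgCl2, BSA, DTT, tRNA and Tween-20. In it, SNAP-549-labelled MS2 coat protein was titrated in doubling steps from 0.7 or 1.5 nM to 3 µM over chip-bound RNA switches transcribed by stalled E. coli RNA polymerase on Illumina chips. Apparent KD is the per-design median over clusters of curve fits to normalised fluorescence.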

[1] = Eterna round: R95, input ligand: FMN 200 uM
[2] = Eterna round: R95, input ligand: microRNA oligo, concentration not stated
[3] = Eterna round: R95, input ligand: none
[4] = input ligand: microRNA oligo, concentration not stated

| Sequence | apparent KD of MS2 coat protein [1] [µM] | apparent KD of MS2 coat protein [2] [µM] | apparent KD of MS2 coat protein [3] [µM] | apparent KD of MS2 coat protein (input ligand: FMN 200 uM) [µM] | apparent KD of MS2 coat protein (input ligand: none) [µM] | apparent KD of MS2 coat protein [4] [µM] |
| --- | --- | --- | --- | --- | --- | --- |
| AAUAUGUGAGGAUAUGCUUUAAGAAGAAUGAGUUUGAAAUAACAUGAGGAUCACCCAUGUAGAAGGCGCUAAAA [Lollin - Beta 1] (puzzle: Exclusion 2) | 0.0194 | 0.0193 | 0.0259 |  |  |  |
| GAAUGAGAGCAGGAUAUCUUAAAAAUGUAUCAAAGAGAAGGGCUCACAUGAGGAUCACCCAUGUGGUCCUAGAU [jl-ex6-4.67 jandersonlee mod] (Eterna round: R97, puzzle: Exclusion 6) |  |  |  | 0.152 | 0.0225 |  |
| UCAUGGUAGCAGGAUAUGCUUGUAAUUUUUUUUGCAGAAGGGCUUACAUGAGGAUCACCCAUGUGUUAGGUCUA [JR_E6_Sub068] (puzzle: Exclusion 6) |  | 0.0307 |  |  |  |  |
| UAUGGUUAAGUCAGGAUAUACUCAUAGAAGUCUGUGUAGAAGGGACAUGAGGAUCACCCAUGUAUGGUAGUGUU [Ex4 #47] (Eterna round: R97, puzzle: Brourd's mod of Exclusion 4) |  |  |  | 0.151 | 0.159 |  |
| AAAAGGUGAGGAUAUUCGGCGCCGGGAAGGUUGGUGCGGAUGAAGAAGGCACAUGAGGAUCACCCAUGUAAUAA [Excls4-I] (puzzle: Exclusion 4) |  | 0.0435 |  |  |  |  |
| UCACGUUAGGAGGAUAUCGAUCCAUUAGCGCGACGAGAAGGCCUGACAUGAGGAUCACCCAUGUGGUCAAACAA [Bexelaar] (puzzle: Exclusion 6) | 0.0521 | 0.265 | 0.158 |  |  |  |
| GCAGGAUAAGUGAGGAUAUACCUAUGGAUACAUAGGUAGAAGGUACAUGAGGAUCACCCAUGUUCCUCACCUGC [Fiskers BMX 4 - 64] (puzzle: Brourd's mod of Exclusion 4) |  | 0.0101 |  |  |  |  |
| UAAUUCGUAGGAUAUACAAAGGGAGAAUGAUUGCGGUCCUGACAUGAGGAUCACCCAUGUAGAAGGAUGAGGGU [Eternabot (L1) Solution 41] (Eterna round: R97, puzzle: Exclusion 2) |  |  |  | 0.0919 | 0.0886 |  |
| GUCCUACAUGAGGAUCACCCAUGUGAGGAUAUGGUUUCGCUGGCCGUAGCCAGUGGAACCAGAAGGCGCAUGAU [Mat - Exclusion 1 - JL Mod - D1] (Eterna round: R97, puzzle: Exclusion 1) |  |  |  | 0.106 | 0.0259 |  |
| CAUUAUUAUCGAGGAUAUCCUAUUGAAAUUCUAGGAGAAGGCGGACUCAACAUGAGGAUCACCCAUGUGGGACGGAUGCUAGGG [Ex NG1 #29] (Eterna round: R96, puzzle: Exclusion NG 1) |  |  |  | 0.0159 | 0.0178 | 0.0196 |
| AGGUGCUUCAGGAGACAUGAGGAUCACCCAUGUUGAGUUAGCGAGGAUAUCGGUAACCAUUGUGAUGAGAAGGCGCAAACCAGA [Ex NG3 #44] (Eterna round: R96, puzzle: Exclusion NG 3) |  |  |  | 0.0605 | 0.0473 | 0.0156 |
| AAUUUGCAAGCGAGAUCCCACAUGAGGAUCACCCAUGUGCUCGUCUUAUAAGGUACUGUGACAAUAGUCACGGUACC [Mat - Sensor, turn-off var - Eli Mod - D94] (Eterna round: R97, puzzle: Sensor, turn-off variant 1) |  |  |  | 0.0167 | 0.0208 |  |
| UAUAUGUUAGGAUAUUAGUAGUAAAUAAAUAAAAUUAUUACUGAGAAGGGACAUGAGGAUCACCCAUGUACCUC [Salish 062 v33] (Eterna round: R97, puzzle: Exclusion 4) |  |  |  | 0.0219 | 0.0127 |  |
| AGUGCGUAUGUGAGGAUAUGCUGGUCCUUGGAUCGGCAGAAGGUACAUGAGGAUCACCCAUGUGGUGUCGUUCU [salish99_Bmod_ex4_104] (puzzle: Brourd's mod of Exclusion 4) | 0.094 | 0.409 | 0.261 |  |  |  |
| GCAGCUAAUGCAGGAUAUCAGCACGAUUAGUGCUGAGAAGGGCACAUGAGGAUCACCCAUGUGAUCAAUUAAUAUUAAUGCUGC [ENG1/11-B1] (Eterna round: R96, puzzle: Exclusion NG 1) |  |  |  | 0.184 | 0.0251 | 0.024 |
| CUGAACUGAGGAUAUACAUGAGGAUCACCCAUGUGAUGUAGUGCACGCGUACGUGUACGUAGAAGGCAGUUCAG [Mat - Exclusion 3 - Eli Mod - D42] (Eterna round: R97, puzzle: Exclusion 3) |  |  |  | 0.0561 | 0.0198 |  |
| UUUUAGCAAGCGAGAUCCCACAUGAGGAUCACCCAUGUGCAUCCAGAAUUACUUUUUGCAUAAGCUCGUCUUAUAUA [JR_STOV1_v2_Sub080] (Eterna round: R97, puzzle: Sensor, turn-off variant 1) |  |  |  | 0.0588 | 0.0645 |  |

| Sequence | apparent KD of MS2 coat protein [1] [µM] | apparent KD of MS2 coat protein [2] [µM] | apparent KD of MS2 coat protein [3] [µM] | apparent KD of MS2 coat protein (input ligand: FMN 200 uM) [µM] | apparent KD of MS2 coat protein (input ligand: none) [µM] | apparent KD of MS2 coat protein [4] [µM] |
| --- | --- | --- | --- | --- | --- | --- |
| GCUGGUCGAGGAUAUGCAAUCGUGCUUCGGCACGUAAGAUCACAUGAGGAUCACCCAUGUAGAAGGUGACCAGC [E2/3-B1] (Eterna round: R97, puzzle: Exclusion 2) |  |  |  | 0.0312 | 0.0178 |  |
| GGUAGGUGUGACUUGGGUGACAUGAGGAUCACCCAUGUCACAAGCUUGUUGCUCGCCUUGUAGUUAACCCAUGUCAC [LRO Sensor-off var1-30 mod of Stov1-13-A1 by Brourd] (Eterna round: R97, puzzle: Sensor, turn-off variant 1) |  |  |  | 0.0341 | 0.0345 |  |
| AAUUAUUAUUGAGGAUAUCGUAUUGAAACAAUACGAGAAGGCGGUAUAAACAUGAGGAUCACCCAUGUGAGCCUGAUGCUUAUG [Ex NG1 #99] (Eterna round: R96, puzzle: Exclusion NG 1) |  |  |  |  |  | 0.0275 |
| GUAUACGAUGAGGAUAUAUGAUAUCAAAGCAUCAUAGAAGGCAUCACAUGAGGAUCACCCAUGUGAUCUUCUUG [Mat - Exclusion 6 - JL Mod - D33] (Eterna round: R97, puzzle: Exclusion 6) |  |  |  | 0.141 | 0.0313 |  |
| AAGUAGGGAGGAUAUACAUAGAUACAGAUUCAUGUAGAACUACAUGAGGAUCACCCAUGUAGAAGGCCCUAAUA [AJ 37] (Eterna round: R96, puzzle: Exclusion 2) |  |  |  | 0.255 | 0.0279 | 0.0251 |
| CGUUCGCGAGGAUAUGCAUUCGAGUCCACUACGUGUCUGGGACUUGAGGAUCACCCAAGUAGAAGGCGCCUCCA [salish99_ex2_r4_650] (Eterna round: R97, puzzle: Exclusion 2) |  |  |  | 0.0785 | 0.13 |  |
| UAACAUGUACAAGGAUAUCAGCACGUUUAGUGCUGAGAAGGUGUAACAUGAGGAUCACCCAUGUAGAUCAUUAAUUAAUUAAUU [ENG1/9-B2] (Eterna round: R96, puzzle: Exclusion NG 1) |  |  |  | 0.244 | 0.102 | 0.12 |
| AAAAUGUCAGGAUAUUGUUAGUUUAGUUGUUUGUAUUAGUUCGAGAAGGGACAUGAGGAUCACCCAUGUUAAAA [Ex4 #67] (Eterna round: R97, puzzle: Exclusion 4) |  |  |  | 0.0457 | 0.0299 |  |
| GAUGCUUCGGCAUCUACAAGCUUUUUGCUCGUCUUAUUAACAUGAGGAUCACCCAUGUCAAAGAGACCUCAUGUAUU [Sensor v3 - turn-off variant 2 - 4] (puzzle: Sensor v3, turn-off variant 2) | 0.314 | 0.0189 | 0.381 |  |  |  |
| AAGAUGCGGAUAGGAUAUGGAAAAAAAAAAAAAUUAGAAGGGUUGGUUAAAAUACAUGAGGAUCACCCAUGUGAAUCAUGAGAA [AK ExNG1-2.1] (Eterna round: R96, puzzle: Exclusion NG 1) |  |  |  | 0.159 | 0.159 | 0.127 |
| UAUUAGUAAGGAUAUCCUUGCAUGGACGAAAGUCCAUGCAAGGAGAAGGUACAUGAGGAUCACCCAUGUUUAUU [Mod of Fisker 15 - Jieux - Exclusion 4] (Eterna round: R97, puzzle: Exclusion 4) |  |  |  | 0.018 | 0.0174 |  |
| CCUUGACAUGAGGAUCACCCAUGUGAGGAUAUGAUGCGAUCGUCGAAAGACGAUAGCAUCAGAAGGCACAUAUG [Fiskers Ex 1 - 8] (puzzle: Exclusion 1) |  | 0.0252 |  |  |  |  |
| GCAAGCUUUAUCACUAUGAACAUGAGGAUCACCCAUGUAUAAGGUAUUACUUUUGGGCCCUUUAGUGCUCGUCUUAU [JR_STOV1_Sub032] (Eterna round: R97, puzzle: Sensor, turn-off variant 1) |  |  |  | 0.0298 | 0.0293 |  |
| AGCCCUGCAGGAUAUGCCCGGGAUAACAUGAGGAUCACCCAUGUGACCGAUUGUUAUUCUGCAGAAGGGCAUGGGA [JL-EX5-4.17 ViennaUCT mod] (Eterna round: R97, puzzle: Exclusion 5) |  |  |  | 0.228 | 0.235 |  |
| ACUGGUCGAGGAUAUACAUGAGGAUCACCCAUGUGGUCACGUGACGAUAGUCACGAAUGUAGAAGGCGACCAGU [E3/3-A2] (Eterna round: R97, puzzle: Exclusion 3) |  |  |  | 0.0157 | 0.123 |  |
| CUGGUUCUAGGAUAUGCACUCACGAUCCUCCUUCAAUCGCAACAUGAGGAUCACCCAUGUAGAAGGAGAAAGUA [Eternabot (L1) Solution 91] (Eterna round: R97, puzzle: Exclusion 2) |  |  |  | 0.0185 | 0.0186 |  |
| CUAGAGUGAGGAUAUACGAGAUCGAAAGAUCGGCGAUCCCUACAUGAGGAUCACCCAUGUAGAAGGCACUCUAG [Mod 12 - Jieux - Exclusion 2] (Eterna round: R97, puzzle: Exclusion 2) |  |  |  | 0.115 | 0.016 |  |
